B1: DP5 (peptide)
peptide: EEEEDNNDDDEEE
notes: designed with the Miyazawa-Jernigan potential, one by three residue design, 13 residues; also called designed peptide DP5; source: synthetic peptide, without caps, at least 95% purity (Toray Research Center Inc.)
B2: DP6 (peptide)
peptide: EEEEEDNNDDDEEEWF
notes: designed with the Miyazawa-Jernigan potential, one by three residue design, 16 residues; designed target is residues 369-384 of p53; also called designed peptide DP6; source: synthetic peptide, without caps, at least 95% purity (Toray Research Center Inc.)
B3: DP2 (peptide)
peptide: EDEEGNDSDEHEE
notes: designed with the Miyazawa-Jernigan potential, one by one residue design, 13 residues; also called designed peptide DP2; source: synthetic peptide, without caps, at least 95% purity (Toray Research Center Inc.)
B4: DP1 (peptide)
peptide: EHEEIFMESKGWR
notes: designed with the Miyazawa-Jernigan potential, one by one residue design, 13 residues; also called designed peptide DP1; source: synthetic peptide, without caps, at least 95% purity (Toray Research Center Inc.)
B5: DP4 (peptide)
peptide: DHIEDEEGNDSDEHEE
notes: designed with the Miyazawa-Jernigan potential, one by one residue design, 16 residues; also called designed peptide DP4; source: synthetic peptide, without caps, at least 95% purity (Toray Research Center Inc.)
B6: DP3 (peptide)
peptide: DEHEEIFMESKGWRDR
notes: designed with the Miyazawa-Jernigan potential, one by one residue design, 16 residues; also called designed peptide DP3; source: synthetic peptide, without caps, at least 95% purity (Toray Research Center Inc.)

target: T1, CT peptide (residues 367–393 of human p53) labeled with FAM at the N-terminus (human, UniProt P04637 367-393, FAM at the N-terminus); experiment: fluorescence polarisation; fluorescence anisotropy; nonlabeled peptide titrated into 5 nM FAM-labeled CT peptide; 25 °C; 20 mM HEPES, 0.5 mM EDTA, 1 mM DTT, 0.2 mg/mL BSA, pH 7.9; in the absence of salt; apparent dissociation constant, one by one binding fit; settings: both partners purified
T1 construct: p53, human, residues 367-393 (C-terminal domain); also called CT peptide of p53; monomeric CT domain of p53; source: synthetic peptide, without caps, at least 95% purity (Toray Research Center Inc.)
T1 sequence (P04637 367-393): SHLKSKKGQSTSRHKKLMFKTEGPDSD

| Kd [µM] | Binder |
| --- | --- |
| 3.2 | B1 |
| 1.2 | B2 |
| 23 | B3 |
| 60 | B4 |
| 9 | B5 |
| 550 | B6 |
